Measured values from US11786605B2, “Site specific antibody-drug conjugates with peptide-containing linkers” (Mersana Therapeutics, Inc., priority 2020, dated 2023).

Key:
[1] = molecular target: FcγRI (Homo sapiens, UniProt P12314); test: Binding kinetics to FcγRI by Biolayer Interferometry; details: BLI, 25° C.
Experimental: (§1) The binding kinetics of the XMT-1535, Conjugate 7, and Conjugate 11 to Fc receptors (FcRn, FcγRI, FcγRIIA (H167), and FcγRIIIA (V176) were determined by Biolayer Interferometry (BLI; ForteBio Octet QKe) at 25° C. To test binding to Fcγ receptors, XMT-1535, Conjugate 7, and Conjugate 11 were diluted to 1 μg/mL in kinetics buffer (1×) and captured on anti-human Fab-CH1 (FAB2G) biosensors for 10 minutes. All dilutions and baseline measurements were done in kinetics buffer (1×). Baseline measurements were performed at […] before and after each capture step. Association measurements to the various Fc receptors were performed at 7 concentrations (from 1 μM to 100 nM, 2-fold serial dilutions) for 5 minutes. Dissociation was performed for 15 minutes. Binding constants were calculated with the global fit averages of the traces using a 1:1 model. Binding constants for XMT-1535, Conjugate 7, and Conjugate 11 to Fc receptors were determined using standard Octet procedures (ForteBio). Kinetic parameters were calculated using Octet software (ForteBio).
(§2) Tables IV-VII summarize the Kd (equilibrium dissociation constant), kon (rate of association), and koff (rate of dissociation) for human FcRn (Table IV), FcγRI (Table V), FcγRIIA H167 (Table VI), and FcγRIIIA […] (Table VII) for each test article.

[2] = molecular target: T1, NaPi2b-derived peptide (Homo sapiens, UniProt O95436); test: Binding kinetics to NaPi2b-derived peptide by Biolayer Interferometry; details: BLI, 25° C.
T1 construct: Genscript); purchased Genscript
T1 sequence (O95436 311-340 limits assumed): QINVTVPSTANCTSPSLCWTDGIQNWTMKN
Experimental: The binding kinetics of XMT-1535, Conjugate 7, and Conjugate 11 to immobilized NaPi2b-derived peptide antigen were determined by Biolayer Interferometry (BLI; Octet; ForteBio). Binding constants for XMT-1535, Conjugate 7, and Conjugate 11 were determined using standard Octet procedures (ForteBio). Biotinylated NaPi2b-derived peptide ([…]-biotin; Genscript) was immobilized to streptavidin octet sensors in kinetics buffer (10×). Sensors were then blocked in kinetics buffer (10×) with biocytin (50 μg/mL). Increasing concentrations of XMT-1535, Conjugate 7, or Conjugate 11 were then associated with immobilized peptide in kinetics buffer (10×).

[3] = molecular target: T2, FcγRIIA (H167) (Homo sapiens, UniProt P12318); test: Binding kinetics to FcγRIIA by Biolayer Interferometry; details: FcγRIIA H167, BLI, 25° C.
T2 sequence (P12318 34-217 limits assumed): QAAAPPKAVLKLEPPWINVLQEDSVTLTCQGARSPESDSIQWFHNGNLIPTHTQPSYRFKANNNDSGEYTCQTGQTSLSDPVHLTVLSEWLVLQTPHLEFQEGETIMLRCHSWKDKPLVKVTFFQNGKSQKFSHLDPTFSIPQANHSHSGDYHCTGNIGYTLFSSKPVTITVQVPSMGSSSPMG
Experimental: as §1, §2

[4] = molecular target: T3, human FcRn (Homo sapiens, UniProt P55899); test: Binding kinetics to FcRn by Biolayer Interferometry; details: BLI, 25° C., pH 6.0
T3 construct: purchased Immunitrack
Experimental: as §1
To test binding to FcRn receptor, association of XMT-1535, Conjugate 7, and Conjugate 11 to Fab-CH1 (FAB2G) biosensors was performed as described above. […] Association measurements to FcRn protein (Immunitrack) was measured at 7 concentrations (from 1 μM to 100 nM, 2-fold serial dilutions) for 5 minutes. […]

[5] = tested on: FcγRIIIA (V176); test: Binding kinetics to FcγRIIIA by Biolayer Interferometry; set-up: species or system human; details: BLI, 25° C.
Experimental: as §1, §2

Chain of FcγRI (P12314 16-374): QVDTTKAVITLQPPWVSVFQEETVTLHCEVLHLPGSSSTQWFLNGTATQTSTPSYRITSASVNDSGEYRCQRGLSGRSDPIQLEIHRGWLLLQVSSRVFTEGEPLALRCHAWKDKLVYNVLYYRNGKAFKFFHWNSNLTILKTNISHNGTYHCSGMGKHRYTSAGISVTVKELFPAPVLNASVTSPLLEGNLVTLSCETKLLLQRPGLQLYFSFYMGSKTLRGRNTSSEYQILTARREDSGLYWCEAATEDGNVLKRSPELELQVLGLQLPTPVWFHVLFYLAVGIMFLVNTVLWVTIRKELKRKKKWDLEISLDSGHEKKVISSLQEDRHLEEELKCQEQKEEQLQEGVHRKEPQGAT

koff Mean [1]: 0.000192 s⁻¹
kon Mean [1]: 1.28e+06 M⁻¹ s⁻¹
koff, Mean Napi2b binding [2]: 1.27e-05 s⁻¹
kon, Mean Napi2b binding [2]: 170000 M⁻¹ s⁻¹
koff Mean [3]: 0.308 s⁻¹
kon Mean [3]: 175000 M⁻¹ s⁻¹
koff Mean [4]: 0.000448 s⁻¹
kon Mean [4]: 160000 M⁻¹ s⁻¹
koff Mean [5]: 0.146 s⁻¹
kon Mean [5]: 216000 M⁻¹ s⁻¹
Substance: XMT-1535: anti-NaPi2b antibody
